System: receptor-negative human melanoma M21L cells
Test: Cell uptake and internalization in M21L cells
Type: cell-based
Conditions: negative M21L cell line, 37 °C, 90 min
Description: (§1) Cell uptake and internalization studies were performed on receptor-positive human melanoma M21 (expressing high levels of αvβ3 integrin and moderate level of integrin αvβ5), human breast cancer MCF7 (exclusively expressing αvβ5), and receptor-negative human melanoma M21L cell lines. The expression of αvβ3 and αvβ5 by cells was already evaluated by flow cytometry (Table 2). The stability of each radiolabeled peptide in the culture media before and after cell exposure was assessed.
(§2) Experiments were conducted in suspension at 37 °C. The working conditions were set up to avoid cell damage and/or death. With the use of these information, the cells were pre-incubated in sterile glass tubes at 37 °C for 10 min, in the presence or not of cRGDfK pentapeptide (50 µL; 1.65 mM).
(§3) Then, 1 mL of the cell suspension (1 × 10^6 cells/mL) was incubated with intermittent agitation with 10 µL (10 µCi) of ^99mTc1–3. At 90 min, the cells were moved in Eppendorf microcentrifuge tubes (1.5 mL) and the incubation was interrupted by centrifugation (3000 rpm for 5 min at 10 °C). The supernatant (S1) was separated from the pellet. The cell pellet was treated 10 min at room temperature with saline acetate buffer (CH3COOH 0.2M/NaCl 0.5 M) to remove the membrane-bound compound. After centrifugation (3000 rpm for 10 min at 10 °C), the supernatant (S2) was separated from the pellet (P1), and each fraction was collected, placed in a separated counting tube, and the activity was measured using a NaI counter (Cobra II, Packard) to estimate both the cell uptake and the internalized fraction.
(§4) The uptake of complexes was expressed as percentage cell uptake of the total activity on 10^6 cells (% cell uptake/10^6 cells).
(§5) All assessments were conducted in triplicate for three experiments.

Row | Substance | cell uptake (sum of surface bound and internalized radioactivity) [% cell uptake/10^6 cells]
1 | [Tc(N)(H2NS-cRGDfK)(PNP43)]^+ [^99mTc2] | 1.65 ± 0.40

System: serum proteins
Test: not given
Type: in vitro ADME
Conditions: not given
Description: Thus, to have some predictive indications of the metabolic outcome of our compounds, the binding to serum proteins and the enzymatic biotransformation of ^99mTc1–3 in blood and tissue homogenates were assessed in vitro by incubating the purified compounds at 37 °C in human and mouse sera as well as in murine liver and kidney homogenates.
Protein Binding. The affinity of the ^99mTc(N) complexes toward the serum proteins was evaluated by chromatographic methods.
Upon incubation, 25 µL of each sample was withdrawn and loaded on a pre-spun (735× g for 2 min) Sephadex G-50 mini-column. The column was centrifuged at 735 × g for 1 min. The collected eluate and the column were counted in a NaI-scintillation counter. The protein-bound complex was calculated as the percentage of the total activity.

Row | Substance | % Protein Binding [%]
2 | [Tc(N)(H2NS-cRGDfK)(PNP43)]^+ [^99mTc2] | 13.63 ± 2.95

System: human melanoma M21 (αvβ3 positive) cells
Test: Cell uptake and internalization in M21 cells
Type: cell-based
Conditions: M21 blocked by an excess of cold cRGDfK, 37 °C, 90 min
Description: as §1, §2, §3, §4, §5

Row | Substance | cell uptake (sum of surface bound and internalized radioactivity), blocked [% cell uptake/10^6 cells]
3 | [Tc(N)(H2NS-cRGDfK)(PNP43)]^+ [^99mTc2] | 1.48 ± 0.12

Same assay, conditions: M21 unblocked, 37 °C, 90 min

Row | Substance | cell uptake (sum of surface bound and internalized radioactivity) [% cell uptake/10^6 cells]
4 | [Tc(N)(H2NS-cRGDfK)(PNP43)]^+ [^99mTc2] | 2.57 ± 0.42

Same assay, conditions: internalized radioactivity, melanoma cell lines

Row | Substance | specific/nonspecific ratio, internalized radioactivity only
5 | [Tc(N)(H2NS-cRGDfK)(PNP43)]^+ [^99mTc2] | 3.28

System: not given
Test: not given
Set-up: species or system Sprague Dawley rats
Conditions: rat, in vivo, iv, 15 uCi/100 uL, 0.5 h
Description: Pharmacokinetics and metabolism.
Female Sprague Dawley rats weighing 180–200 g were anesthetized with an intraperitoneal injection of a mixture of Zoletil (40 mg/kg) and xylazine (2 mg/kg). A jugular vein was surgically exposed, and the solution containing the radiolabeled peptide was injected (15 µCi/100 µL). The rats (n = 3) were scarified by cervical dislocation at different times after injection. The blood was withdrawn from the heart with a syringe immediately after death and quantified. Organs were excised, rinsed in saline, weighed, and the activity was counted in a NaI counter. The results were expressed as the percentage of injected activity per gram of tissue (%IA/g) to be able to compare our results with those reported in the literature.

Row | Substance | Blood [%IA/g] | Heart [%IA/g] | Intestine [%IA/g] | Kidneys [%IA/g] | Liver [%IA/g] | Lungs [%IA/g] | Muscle [%IA/g] | Spleen [%IA/g] | Stomach [%IA] | Urine [%IA]
6 | [Tc(N)(H2NS-cRGDfK)(PNP43)]^+ [^99mTc2] | 0.65 ± 0.04 | 0.30 ± 0.01 | 1.19 ± 0.14 | 6.77 ± 0.86 | 0.90 ± 0.13 | 0.82 ± 0.09 | 0.22 ± 0.03 | 0.47 ± 0.02 | 0.82 ± 0.07 | 17.7 ± 3.6

Same assay, conditions: rat, in vivo, iv, 15 uCi/100 uL, 1 h

Row | Substance | Blood [%IA/g] | Heart [%IA/g] | Intestine [%IA/g] | Kidneys [%IA/g] | Liver [%IA/g] | Lungs [%IA/g] | Muscle [%IA/g] | Spleen [%IA/g] | Stomach [%IA] | Urine [%IA]
7 | [Tc(N)(H2NS-cRGDfK)(PNP43)]^+ [^99mTc2] | 0.35 ± 0.07 | 0.20 ± 0.04 | 1.69 ± 0.17 | 6.20 ± 0.68 | 0.73 ± 0.01 | 0.56 ± 0.10 | 0.14 ± 0.03 | 0.40 ± 0.05 | 0.64 ± 0.08 | 28.5 ± 4.6

Same assay, conditions: rat, in vivo, iv, 15 uCi/100 uL, 2 h

Row | Substance | Blood [%IA/g] | Heart [%IA/g] | Intestine [%IA/g] | Kidneys [%IA/g] | Liver [%IA/g] | Lungs [%IA/g] | Muscle [%IA/g] | Spleen [%IA/g] | Stomach [%IA] | Urine [%IA]
8 | [Tc(N)(H2NS-cRGDfK)(PNP43)]^+ [^99mTc2] | 0.19 ± 0.04 | 0.15 ± 0.06 | 1.94 ± 0.25 | 5.51 ± 0.42 | 0.57 ± 0.03 | 0.42 ± 0.02 | 0.12 ± 0.01 | 0.38 ± 0.04 | 0.51 ± 0.08 | 41.5 ± 4.5

Same assay, conditions: rat, in vivo, iv, 15 uCi/100 uL, 4 h

Row | Substance | Blood [%IA/g] | Heart [%IA/g] | Intestine [%IA/g] | Kidneys [%IA/g] | Liver [%IA/g] | Lungs [%IA/g] | Muscle [%IA/g] | Spleen [%IA/g] | Stomach [%IA] | Urine [%IA]
9 | [Tc(N)(H2NS-cRGDfK)(PNP43)]^+ [^99mTc2] | 0.11 ± 0.02 | 0.12 ± 0.01 | 1.90 ± 0.19 | 4.27 ± 0.31 | 0.52 ± 0.07 | 0.34 ± 0.04 | 0.09 ± 0.00 | 0.34 ± 0.07 | 0.41 ± 0.09 | 43.5 ± 3.4

System: not given
Test: not given
Set-up: species or system Sprague Dawley rats
Conditions: rat, in vivo
Description: As expected, MRT values of liver and kidneys were much higher than the dose of stomach, spleen, lung, and heart.
The time–activity curves of the main organs were obtained using the biodistribution data (%IA/organ) as input for the CoKiMo spreadsheet software. Then, the organ mean residence times (MRT) were computed by integration of the organ activity curves, extrapolated until 5 half-lives of Tc-99m (30 h) and corrected for its physical decay, to evaluate the pharmacokinetic profile of each radiolabeled peptide.

Row | Substance | MRT Blood [min] | MRT Heart [min] | MRT Kidney [min] | MRT Liver [min] | MRT Lung [min] | MRT Spleen [min] | MRT Stomach [min]
10 | [Tc(N)(H2NS-cRGDfK)(PNP43)]^+ [^99mTc2] | 16.9 | 0.4 | 30.7 | 25.9 | 1.6 | 0.8 | 2.1

— article PMC9029856, “Impact of Different [Tc(N)PNP]-Scaffolds on the Biological Properties of the Small cRGDfK Peptide: Synthesis, In Vitro and In Vivo Evaluations” (Molecules, 2022)
